As usually defined, the Kd is the constant that tells how readily two partners part at equilibrium.

Entries after “also recorded” stand apart in the source; their conditions may differ. Where a SMILES comes first, the peptide text is derived from it. Where no end group is shown, it is not given here. The star is where a group is joined. 5FAM = O=C1OC2(c3ccc(O)cc3Oc3cc(O)ccc32)c2ccc(C(=O)*)cc21

For series [1], the target named is T1, α-parvin-CHC (residues 242–372) (Homo sapiens, UniProt Q9NVD7).
T1 construct: α-parvin-CHC (242–372) were subcloned; GST (N, cleaved yes); made in house; host or cells: Escherichia coli BL21
T1 sequence (Q9NVD7 242-372): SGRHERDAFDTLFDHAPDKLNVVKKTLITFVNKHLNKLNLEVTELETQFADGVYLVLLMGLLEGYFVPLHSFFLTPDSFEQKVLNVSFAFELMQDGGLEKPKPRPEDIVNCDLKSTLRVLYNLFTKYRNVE
In words: NMR 1H-15N HSQC titration of 15N-enriched α-parvin-CHC with LD peptides. Format: binding. Particulars: for KD / affinity range in words: NMR titration, 50 mM sodium phosphate, 100 mM NaCl, pH 6.9, 25°C.

Series [2] is described as follows: Solubility of LD peptide noted in NMR titration. The format is physicochemical. Particulars: NMR titration buffer, 50 mM sodium phosphate, 100 mM NaCl, pH 6.9. The method, then: Figure S2. Determination of KD-Values for the Interaction of α−Parvin-CHC w ith LD Peptides […]
Titrations were performed with peptides representing the LD1 (A), LD 2(B), LD3 (C), LD4 (D), and […]
δ∆(1H15N) > 0.2 ppm for LD1 and LD2) were fitted globally to a single-site model (see experimental procedures). The errors refer to the fit only and exclude experimental errors. Note […]
respectively. No value could be derived for LD5 due to its low affinity. The KD-value for LD1 represents the weighted average over both antiparallel binding orientations, which exchange fast […]

For series [3], the target named is paxillin LD1 (Homo sapiens) (UniProt P49023). Particulars: cited from earlier work.
Series [4] has as its target T2, α-parvin-CHC (C-terminal calponin homology domain fragment of human α-parvin, residues 242-372) (human, UniProt Q9NVD7 242-372).
T2 construct: α-parvin, human, residues 242-372: the entire C-terminal CH domain and a portion of the inter-CH domain linker; Expressed from pGEX-6P1 (BamHI/EcoRI); also called type-5 CH domain of α-parvin; actopaxin; source: E. coli BL21, GST fusion, purified (glutathione sepharose, 3C-protease cleavage, Superdex 75); 15N-enriched for NMR
T2 sequence (looked up): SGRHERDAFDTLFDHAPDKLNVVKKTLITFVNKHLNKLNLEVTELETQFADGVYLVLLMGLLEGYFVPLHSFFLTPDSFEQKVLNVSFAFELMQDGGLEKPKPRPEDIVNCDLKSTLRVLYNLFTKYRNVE
In words: NMR titration; 1H-15N HSQC of 235 μM 15N-enriched α-parvin-CHC titrated with LD peptide; 50 mM sodium phosphate, 100 mM NaCl, 2 mM DTT, 5% D2O, pH 6.9, 25°C; global fit to a single-site model. Particulars: both partners purified.

The target of series [5] is T2, α-parvin-CHC (C-terminal calponin …). Nature of the series: fluorescence polarisation; fluorescence anisotropy; 50 nM 5-FAM-labeled LD1 peptide, protein up to 300 μM; 100 mM potassium phosphate, 2 mM DTT, pH 8.0, 25°C; global fit to a single-site model. Particulars: both partners purified. (In general: Polarisation of emitted light reports the rotation of a fluorescent probe.)

Series [6] has as its target T3, full-length human α-parvin (1-372) (human, UniProt Q9NVD7 1-372).
T3 construct: α-parvin, human, full length, residues 1-372; Expressed from pGEX-6P1 (EcoRI/EcoRI); also called full-length α-parvin; actopaxin; source: E. coli BL21, GST fusion, purified (glutathione sepharose, 3C-protease cleavage, MonoQ)
T3 sequence (looked up): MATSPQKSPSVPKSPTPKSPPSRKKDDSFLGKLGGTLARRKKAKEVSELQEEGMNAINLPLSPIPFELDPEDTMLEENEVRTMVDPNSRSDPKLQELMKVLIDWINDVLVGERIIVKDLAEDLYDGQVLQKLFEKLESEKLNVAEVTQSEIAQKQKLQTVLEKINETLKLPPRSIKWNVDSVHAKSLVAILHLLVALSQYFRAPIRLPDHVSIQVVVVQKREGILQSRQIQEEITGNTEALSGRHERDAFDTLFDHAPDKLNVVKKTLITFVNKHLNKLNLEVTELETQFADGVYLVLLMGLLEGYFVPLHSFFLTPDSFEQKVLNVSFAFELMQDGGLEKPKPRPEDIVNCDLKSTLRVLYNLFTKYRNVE
The series is described as above. Particulars: both partners purified.

Regarding `CC[C@H](C)[C@H](NC(=O)[C@H](Cc1c[nH]cn1)NC(=O)[C@H](CO)NC(=O)[C@@H](NC(=O)[C@@H](NC(=O)[C@H](CO)NC(=O)[C@H](CCC(=O)O)NC(=O)[C@H](CC(C)C)NC(=O)[C@H](CC(=O)O)NC(=O)[C@H](C)NC(=O)[C@H](CC(C)C)NC(=O)[C@H](CC(C)C)NC(=O)[C@H](C)NC(=O)[C@H](CC(=O)O)NC(=O)[C@H](CC(C)C)NC(=O)[C@H](CC(=O)O)NC(=O)[C@H](CC(=O)O)NC(=O)[C@@H](N)CCSC)[C@@H](C)O)[C@@H](C)O)C(=O)N[C@@H](CO)C(=O)N[C@@H](CCCCN)C(=O)O` [LD1] (H-MDDLDALLADLESTTSHISK-OH), the “KD / affinity range in words” value in series [1] is given as “micromolar range”. Same read-out and setting: then `CC(C)C[C@H](NC(=O)[C@H](CCC(=O)O)NC(=O)[C@H](CC(C)C)NC(=O)[C@H](CC(C)C)NC(=O)[C@H](CC(C)C)NC(=O)[C@H](CCCNC(=N)N)NC(=O)[C@H](CC(=O)O)NC(=O)[C@H](CC(C)C)NC(=O)[C@H](CCC(=O)O)NC(=O)[C@H](CO)NC(=O)[C@H](CC(C)C)NC(=O)[C@@H](N)CC(N)=O)C(=O)N[C@@H](CC(N)=O)C(=O)N[C@@H](C)C(=O)N[C@H](C(=O)N[C@@H](CCC(N)=O)C(=O)N[C@@H](Cc1c[nH]cn1)C(=O)N[C@@H](CC(N)=O)C(=O)N1CCC[C@H]1C(=O)N1CCC[C@H]1C(=O)O)C(C)C` [LD2], with “micromolar range”; and `CC(C)C[C@H](NC(=O)[C@H](CCC(=O)O)NC(=O)[C@H](CC(=O)O)NC(=O)[C@H](CC(C)C)NC(=O)[C@H](CC(C)C)NC(=O)[C@H](CO)NC(=O)[C@H](CCC(=O)O)NC(=O)[C@@H](NC(=O)[C@H](CO)NC(=O)[C@@H]1CCCN1C(=O)[C@H](CCCNC(=N)N)NC(=O)[C@@H](N)C(C)C)C(C)C)C(=O)N[C@@H](CCC(=O)O)C(=O)N[C@@H](CO)C(=O)N[C@@H](CO)C(=O)N[C@H](C(=O)N1CCC[C@H]1C(=O)N[C@@H](CO)C(=O)N1CCC[C@H]1C(=O)N[C@H](C(=O)O)C(C)C)C(C)C` [LD3] (H-VRPSVESLLDELESSVPSPV-OH), with “relatively low affinity; also recorded: millimolar range”. In the case of `CSCC[C@H](NC(=O)[C@H](Cc1ccccc1)NC(=O)[C@H](CCCCN)NC(=O)[C@H](Cc1ccccc1)NC(=O)[C@H](CC(=O)O)NC(=O)[C@H](CO)NC(=O)[C@H](CC(C)C)NC(=O)[C@H](CO)NC(=O)[C@H](C)NC(=O)[C@H](CCSC)NC(=O)[C@H](CC(C)C)NC(=O)[C@H](CCC(=O)O)NC(=O)[C@H](CC(=O)O)NC(=O)[C@H](CC(C)C)NC(=O)[C@H](CCC(=O)O)NC(=O)[C@H](CCCNC(=N)N)NC(=O)[C@@H](NC(=O)[C@H](C)N)[C@@H](C)O)C(=O)N[C@@H](C)C(=O)N[C@@H](CCC(N)=O)C(=O)O` [LD4] (H-ATRELDELMASLSDFKFMAQ-OH), in series [2], the “solubility (in words)” value is given as “poor solubility”. Moreover, the “KD / affinity range in words” value in series [1] is reported as “micromolar range”. In the case of PGSQLDSMLGSLQSDLNKLG [LD5], the “KD / affinity range in words” value in series [1] was “low affinity; also recorded: millimolar range; also recorded: mM range ^a”. Take “PROXYL-labeled LD1: N-terminally blocked LD1 with N-terminal methionine replaced by cysteine, labeled with 3-maleimido-PROXYL (C(3‑maleimido‑PROXYL)DDLDALLADLESTTSHISK; also: N-terminally blocked (group not given here))”: the “KD-value compared with underivatized LD1 peptide” value in series [1] (data not shown) is given as “the same”. Consider α-parvin CHC (from UniProt Q9NVD7), for which the Kd in series [3] is 1200 µM.

B1: paxillin LD2 peptide (human paxillin residues 141-160) (peptide)
peptide: NLSELDRLLLELNAVQHNPP
notes: paxillin, human, LD2 motif, residues 141-160; source: synthetic peptide, bought: Severn Biotech
B1 returned a Kd in series [4] of 204 ± 3 µM.

B2: 5-FAM-labeled LD1 peptide (paxillin residues 1-20) (peptide)
peptide: MDDLDALLADLESTTSHISK(5FAM)
notes: paxillin, human, LD1 motif, residues 1-20; also called fluorophore-labeled LD1 peptide; source: synthetic peptide, bought: Severn Biotech
On to B2, for which the values for the Kd in series [5] and in series [6] were 120 ± 20 µM and 130 ± 22 µM, respectively.

B3: paxillin LD3 peptide (human paxillin residues 213-232) (peptide)
peptide: VRPSVESLLDELESSVPSPV
notes: paxillin, human, LD3 motif, residues 213-232; source: synthetic peptide, bought: Severn Biotech
For the molecule B3, in series [4], the Kd was found to be 2300 ± 100 µM.

B4: paxillin LD4 peptide (human paxillin residues 262-281) (peptide)
peptide: ATRELDELMASLSDFKFMAQ
notes: paxillin, human, LD4 motif, residues 262-281; source: synthetic peptide, bought: Severn Biotech
For the molecule B4, binding in series [4] was characterised by a dissociation constant (Kd) of 140 ± 30 µM.

B5: paxillin LD1 peptide (human paxillin residues 1-20) (peptide)
peptide: MDDLDALLADLESTTSHISK
notes: paxillin, human, LD1 motif, residues 1-20; source: synthetic peptide, bought: Severn Biotech
As to B5, binding in series [4] was characterised by a dissociation constant (Kd) of 96 ± 2 µM.

Source of the values: article PMC2572193, “Structural Analysis of the Interactions Between Paxillin LD Motifs and α-Parvin” (Structure(London, England:1993), 2008).
